Data: paper doi:10.1101/2020.04.07.029496 (bioRxiv, 2020)

T1: S. cerevisiae Tip20_(I481D,L585D) (S. cerevisiae, UniProt P33891 1-701, I481D | L585D)
T1 sequence: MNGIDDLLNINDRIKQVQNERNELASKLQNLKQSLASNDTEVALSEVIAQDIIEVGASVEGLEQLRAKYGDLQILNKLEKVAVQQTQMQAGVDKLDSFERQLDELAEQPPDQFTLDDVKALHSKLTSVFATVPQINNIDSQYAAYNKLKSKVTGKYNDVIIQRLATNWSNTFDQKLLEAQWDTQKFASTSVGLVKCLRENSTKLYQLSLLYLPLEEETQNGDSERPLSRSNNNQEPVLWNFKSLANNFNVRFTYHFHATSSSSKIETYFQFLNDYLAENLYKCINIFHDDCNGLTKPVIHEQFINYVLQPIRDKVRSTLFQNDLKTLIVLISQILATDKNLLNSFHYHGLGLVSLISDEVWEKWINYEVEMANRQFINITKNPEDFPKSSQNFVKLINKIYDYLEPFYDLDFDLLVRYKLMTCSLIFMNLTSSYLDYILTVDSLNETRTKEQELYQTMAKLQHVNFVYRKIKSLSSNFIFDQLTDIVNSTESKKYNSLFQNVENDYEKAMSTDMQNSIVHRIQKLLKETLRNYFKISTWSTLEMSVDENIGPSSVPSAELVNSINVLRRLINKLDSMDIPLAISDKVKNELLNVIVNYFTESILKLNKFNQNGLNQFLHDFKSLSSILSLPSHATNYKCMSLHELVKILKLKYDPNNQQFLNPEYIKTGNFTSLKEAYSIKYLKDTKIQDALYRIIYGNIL


How the values were obtained:
[1] = biological target: E. gossypii Tip20 (residues 1-672) (E. gossypii); test: ITC
[2] = biological target: T1, S. cerevisiae Tip20_(I481D,L585D); test: ITC

Kd [1] [nM] | fold increase in KD against wild-type Tip20 [2] [fold] | Molecule
100 |  | E. gossypii MBP-Sec20NTD (domain or fragment)
 | 15 | S. cerevisiae Sec20_(1-174) (domain or fragment, UniProt P28791 1-174, looked up) MVVTFLQDLEVLQDALLNNLQKLSAISRRKESGESKHDNKDSFAAIANEHNDEEEEIEFEDLVNIIESKVSDFESVLKCSIVEMTYKYPELKLQWEKSPRYDQCDKLHIVKLDKQMNEDIYAQLVEELDFVLQFVDWFYCYRLKVKEILRQHHKRDLAWNDEKRDRAIKFHAVD
